Key:
liver = conditions: human, in vivo; cited from earlier work
rat and rabbit liver = experiment: In vivo animal hepatic imaging after intravenous injection of labelled compounds
Method: Adult male Wistur rats weighing about 400g and male New Zealand rabbits weighing about 2.5kg. were used in the in vivo animal imaging studies. After intravenous injection of the labelled compounds (100-400uCi) as a bolus into experimental animals, hepatic imaging was performed on a PhoGamma III scintillation camera (Nuclear Chicago Corp., Des Plaines, Ill.) using a 140keV parallel collimator. Images were recorded on Polaroid type 55 film.

[1] = in vivo; cited from earlier work

Molecule: O=C(O)c1c(Cl)c(Cl)c(Cl)c(Cl)c1-c1c2cc(I)c(=O)c(I)c-2oc2c(I)c(O)c(I)cc12 [^131 I-rose bengal]
- 20:5 minutes ratio of blood ^131 I-rose bengal concentrations (liver): 0.39-0.51
- time by which biliary excretion has begun (liver): ≤ 20 min
- time for maximal concentration in the liver (liver): ~30 min

B1: Radiolabelled DTBG: Radiolabelled desialylated thyroxine-binding globulin; radiolabel not specified at that place (protein, UniProt P05543 21-415, looked up)
Thyroxine-binding globulin: ASPEGKVTACHSSQPNATLYKMSSINADFAFNLYRRFTVETPDKNIFFSPVSISAALVMLSFGACCSTQTEIVETLGFNLTDTPMVEIQHGFQHLICSLNFPKKELELQIGNALFIGKHLKPLAKFLNDVKTLYETEVFSTDFSNISAAKQEINSHVEMQTKGKVVGLIQDLKPNTIMVLVNYIHFKAQWANPFDPSKTEDSSSFLIDKTTTVQVPMMHQMEQYYHLVDMELNCTVLQMDYSKNALALFVLPKEGQMESVEAAMSSKTLKKWNRLLQKGWVDLFVPKFSISATYDLGATLLKMGIQHAYSENADFSGLTEDNGLKLSNAAHKAVLHIGEKGTEAAAVPEVELSDQPENTFLHPIIQIDRSFMLLILERSTRSILFLGKVVNPTEA
modifications: desialylated; radiolabelled
notes: radiolabel not specified at that place
- liver imaging after intravenous injection (rat and rabbit liver; scintillation camera): effective as a liver imaging agent

B2: DTBG: desialylated thyroxine-binding globulin from pooled human serum (protein, UniProt P05543 21-415, looked up)
Thyroxine-binding globulin: B1 Thyroxine-binding globulin
modifications: desialylated
- half-life in the circulation [1]: 4 to 5 min

B3: ^131 I-DTBG: ^131 I labelled desialylated thyroxine-binding globulin (protein, UniProt P05543 21-415, looked up)
Thyroxine-binding globulin: B1 Thyroxine-binding globulin
modifications: 131I label; desialylated
- clearance of the iodine label by the kidneys noted, time post-injection (rat and rabbit liver; in vivo): 20 or 30 minutes
- uptake and concentration in the liver (rat and rabbit liver; in vivo): rapidly taken up by the hepatocytes

— US4010251A, “Scanning agent composition and use in imaging liver and for biliary function” (priority 1974, dated 1977)
